For assay [1], the target named is human serum albumin (HSA) (human, UniProt P02768 25-609). Put plainly: on-yeast binding assay: yeast-displayed nanobody, titration of HSA, n=3, EC50 from curve fit.
The target of assay [2] is T1, angiotensin II type 1 receptor (AT1R) with FLAG peptide fused to its N-terminus (human, UniProt P30556 2-359).
T1 construct: also called AT1R-angiotensin II complex
T1 sequence: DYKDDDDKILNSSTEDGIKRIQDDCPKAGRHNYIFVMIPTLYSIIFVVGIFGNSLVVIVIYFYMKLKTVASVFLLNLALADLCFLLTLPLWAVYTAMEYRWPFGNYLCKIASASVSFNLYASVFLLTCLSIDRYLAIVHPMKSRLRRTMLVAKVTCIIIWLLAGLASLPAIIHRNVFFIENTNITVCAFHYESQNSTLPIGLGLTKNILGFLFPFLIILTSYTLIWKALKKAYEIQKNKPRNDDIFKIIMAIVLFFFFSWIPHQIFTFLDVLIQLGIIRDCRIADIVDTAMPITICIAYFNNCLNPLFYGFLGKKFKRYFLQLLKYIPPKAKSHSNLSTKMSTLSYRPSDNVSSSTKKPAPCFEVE
Kind of assay: on-yeast binding assay: yeast-displayed nanobody, titration of AT1R-angiotensin II complex, single replicate, EC50 from curve fit.

The target in assay [3] is T1, angiotensin II type 1 receptor (AT1R) …. Put plainly: radioligand competition binding assay on AT1R (nanobody stabilises agonist binding in the presence of antagonist; radioligand not named), three independent experiments; column headed Affinity. For orientation: Displacement assays read how much labelled ligand stays bound in the presence of the test substance.

B1: Nb.b201i3 (VHH)
VHH: QVQLQESGGGLVQAGGSLRLSCAASGYISDAYYMGWYRQAPGKEREFVATITHGTNTYYADSVKGRFTISRDNAKNTVYLQMNSLKPEDTAVYYCAVLETRSYSFRYWGQGTQVTVSS
notes: also called Nb.b201 mutants
With B1, in assay [1], the EC50 (as a rule, the concentration needed to bring the measured effect to its halfway point) stood at 5.4 nM.

B2: Nb.b201 (VHH)
VHH: QVQLQESGGGLVQAGGSLRLSCAASGYISDAYYMGWYRQAPGKEREFVATITHGTNTYYADSVKGRFTISRDNAKNTVYLQMYSLKPEDTAVYYCAVLETRSYSFRYWGQGTQVTVSS
notes: also called nanobody Nb.b201
Consider B2, for which a half-maximal response in assay [1] (EC50) required 18 nM.

B3: Nb.b201i1 (VHH)
VHH: QVQLQESGGGLVQAGGSLRLSCAASGYISDAYYMGWYRQAPGKERGFVATITHGTNTYYADSVKGRFTISRDNAKNTVYLQMNSLKPEDTAVYYCAVLETRSYSFRYWGQGTQVTVSS
notes: also called Nb.b201 mutants
In assay [1], B3 came in with an EC50 of 8 nM.

B4: AT110 (VHH)
VHH: QVQLQESGGGLVQAGGSLRLSCAASGNIFDADIMGWYRQAPGKERELVASITDGGSTNYADSVKGRFTISRDNAKNTVYLQMNSLKPEDTAVYYCAAIAYPDIPTYFDYDSDYFYWGQGTQVTVSS
notes: also called nanobody AT110
As to B4, a half-maximal effect in assay [2] (EC50) was put at 257 nM. In addition, in assay [3], the IC50 (commonly the concentration needed to halve the response being measured) was 50 nM.

B5: AT110i104 (VHH)
VHH: QVQLQESGGGLVQAGGSLRLSCAASGNIFDADIMGWYRQAPGKERELVASITDGGSTNYADSVKGHFTISRDNAKNTVYLQMNSLKPEDTAVYYCAAIAYPDIPTYFDYDSDYFYWGQGTQVTVSS
notes: also called AT110 R66H; single mutation R66H
Take B5: a half-maximal response in assay [2] (EC50) required 133 nM. Moreover, in assay [3], the IC50 is 31 nM.

B6: AT110 R45C (VHH)
VHH: QVQLQESGGGLVQAGGSLRLSCAASGNIFDADIMGWYRQAPGKECELVASITDGGSTNYADSVKGRFTISRDNAKNTVYLQMNSLKPEDTAVYYCAAIAYPDIPTYFDYDSDYFYWGQGTQVTVSS
notes: also called dominant mutation R45C
Regarding B6, the EC50 in assay [2] was 15 nM.

B7: AT110i103 (VHH)
VHH: QVQLQESGGGLVQAGGSLRLSCAASGNIFDADIMGWYRQAPGKERELVASITDGGSTNYADSVKGHFTISRDNAKNTVYLQMNSLKPEDTAVYYCAAVAYPDIPTYFDYDSDHFYWGQGTQVTVSS
Turning to B7, the EC50 in assay [2] worked out at 20 nM. Further, the IC50 in assay [3] came to 2.5 nM.

B8: AT110 Y113H (VHH)
VHH: QVQLQESGGGLVQAGGSLRLSCAASGNIFDADIMGWYRQAPGKERELVASITDGGSTNYADSVKGRFTISRDNAKNTVYLQMNSLKPEDTAVYYCAAIAYPDIPTYFDYDSDHFYWGQGTQVTVSS
notes: also called single mutation Y113H
For B8, in assay [2], the EC50 worked out at 35 nM. Moreover, in assay [3], the IC50 was determined as 63 nM.

B9: AT110i101 (VHH)
VHH: QVQLQESGGGLVQAGGSLRLSCAASGNIFDADIMGWYRQAPGKERELVASITDGGSTNYADSVKGRFTISRDNAKNTVYLQMNSLKPEDTAVYYCAAVAYPDIPTYFDYDSDYFYWGQGTQVTVSS
notes: also called AT110 I98V; dominant mutation 198V (so in the source)
B9 had an EC50 in assay [2] of 48 nM. For the same molecule, the IC50 in assay [3] is 15 nM.

B10: AT110i102 (VHH)
VHH: QVQLQESGGGLVQAGGSLRLSCAASGNIFDADIMGWYRQAPGKERELVASITDGGSTNYADSVKGHFTISRDNAKNTVYLQMNSLKPEDTAVYYCAAVAYPDIPTYFDYDSDYFYWGQGTQVTVSS
For the molecule B10, it took 14 nM to reach a half-maximal effect in assay [2] (EC50). For the same molecule, the IC50 in assay [3] is 5 nM.

The values above are taken from patent publication US20240182911A1 (University of California, published 2024).
